Experimental data taken from article PMC10473253, “A novel salt- and organic solvent-tolerant phosphite dehydrogenase from Cyanothece sp. ATCC 51142” (Frontiers in Bioengineering and Biotechnology, 2023).

Tests used:
Assay in all cases: purified protein
Assay type in all cases: biochemical, Crocosphaera subtropica
purified protein [1] = substrate: NC(=O)c1ccc[n+]([C@@H]2O[C@H](COP(=O)(O)OP(=O)(O)OC[C@H]3O[C@@H](n4cnc5c(N)ncnc54)[C@H](O)[C@@H]3O)[C@@H](O)[C@H]2O)c1; settings: 1.0 mM phosphite, 100 mM MOPS pH 7.3, 37°C, text b35 prints kcat 2.24 ± 0.15
purified protein [2] = substrate: NC(=O)c1ccc[n+]([C@@H]2O[C@H](COP(=O)(O)OP(=O)(O)OC[C@H]3O[C@@H](n4cnc5c(N)ncnc54)[C@H](OP(=O)(O)O)[C@@H]3O)[C@@H](O)[C@H]2O)c1; settings: 1.0 mM phosphite, 100 mM MOPS pH 7.3, 37°C
purified protein [3] = substrate: O=[PH](O)O; settings: 1.0 mM NAD+ as co-substrate, 100 mM MOPS pH 7.3, 37°C

B1: Ct-PtxD (Crocosphaera subtropica ATCC 51142) (protein)
chain: MNQKPKVVITHWVHPEIIDYLTPHCELILNQTKETLTREEVINRSKDAQGLMVFMPDYIDVNFLEACPQLKVISGALRGYDNFDVEACTKRNIWFTIVPDLLAAPTAELTIGLLLILARRMVEGDRLIRSGNFQGWKPQLYSTGLLNKTLGIIGMGKLGKALTKRLMGFDMTLLYHDKITLTSQQERDWKITKTSLEELLTKSDYVVLMVPLVPDTYHLINENSLKMMKPNSFLINPCRGSIVDETAVATAIKSGHLAGYAADVFEMEDWAIANRPQSINQTLLTDINHTFFTPHLGSAVNEVRRDIALEAAKNIIEVLSENRPQGAVNGIV
notes: full-length, 332 residues; pET-21b(+) NdeI/XhoI, His-tagged, E. coli Rosetta2 (DE3) pLysS
What does the source list for B1?
Km (purified protein [1]): 9.07 ± 1.05 µM; Km (purified protein [2]): 122 ± 4 µM; Km (purified protein [3]): 168 ± 25 µM
